{
  "source": "paper PMC13544220",
  "about": "“Glycemic and bodyweight effects of GIPR coding variation reflect differences in surface expression and intrinsic functional impairment” (Science Advances, 2026)",
  "molecules": {"B1": {"name": "S64A (protein, UniProt P48546 22-466, looked up, variant S64A)", "Gastric inhibitory …": "RAETGSKGQTAGELYQRWERYRRECQETLAAAEPPSGLACNGAFDMYVCWDYAAPNATARASCPWYLPWHHHVAAGFVLRQCGSDGQWGLWRDHTQCENPEKNEAFLDQRLILERLQVMYTVGYSLSLATLLLALLILSLFRRLHCTRNYIHINLFTSFMLRAAAILSRDRLLPRPGPYLGDQALALWNQALAACRTAQIVTQYCVGANYTWLLVEGVYLHSLLVLVGGSEEGHFRYYLLLGWGAPALFVIPWVIVRYLYENTQCWERNEVKAIWWIIRTPILMTILINFLIFIRILGILLSKLRTRQMRCRDYRLRLARSTLTLVPLLGVHEVVFAPVTEEQARGALRFAKLGFEIFLSSFQGFLVSVLYCFINKEVQSEIRRGWHHCRLRRSLGEEQRQLPERAFRALPSGSGPGEVPTSRGLSSGTLPGPGNEASRELESYC"}},
  "assay_type_in_all_cases": "cell-based, human",
  "key": {"[1]": {"tested_on": "wild-type and variant SNAP-GIPR", "experiment": "Surface SNAP-GIPR expression (SNAP-tag labelling) in AD293 cells;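 as to all read-outs here: scaled to the experimental average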", "conditions": "for AD293 Surface: Fig S3E, mean; for Surface SNAP-GIPR expression: sheet Fig 1C", "outline": "(§1)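 Surface GIPR is quantified from wide-field images after labelling intact transfected cells with a membrane-impermeant SNAP probe at 500 nM for 10 min at room temperature. Specific signal, corrected for nontransfected cells, is normalized to the experiment-wide average or to wild-type.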"}, "[2]": {"tested_on": "wild-type and variant SNAP-GIPR", "experiment": "Surface SNAP-GIPR expression (SNAP-tag labelling) in INS-1 cells", "conditions": "Fig 4G; Mean", "outline": "as §1"}, "[3]": {"tested_on": "wild-type and variant SNAP-GIPR", "experiment": "Single-concentration GIP cAMP response by HTRF in AD293 cells", "conditions": "Fig S3F, HTRF, mean", "description": "(§2) All variants were tested in parallel on each occasion to control for transfection efficiency differences between experiments."}, "[4]": {"tested_on": "wild-type and variant SNAP-GIPR", "experiment": "Single-concentration GIP cAMP response by HTRF in INS-1 cells", "conditions": "Fig S3E, mean", "description": "as §2"}, "[5]": {"tested_on": "wild-type and variant SNAP-GIPR", "experiment": "cADDis cAMP imaging in AD293 cells, ensemble, expression-matched and per decile", "conditions": "Fig S3F, cADDis, mean", "outline": "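Per-cell cAMP from cADDis intensity over time, with cells excluded by IBMX/FSK response criteria. Expression matching used wild-type surface-SNAP deciles, top and bottom trimmed, mean of decile means. Ensemble values ignore deciles. Wide-field imaging at 37 °C in KRBH with 6 mM glucose, 0.1% BSA, 24 h post-transfection in AD293.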"}, "[6]": {"tested_on": "wild-type and variant SNAP-GIPR", "experiment": "Constitutive and agonist-mediated internalization, reversible SNAP-tag labelling, AD293 cells", "set-up": "key to Internalisation, Vehicle / Internalisation, +GIP / Internalisation, GIP-only: % internalization: residual fluorescence after Mesna vs pre-Mesna; Surface expression: unit not given here", "conditions": "Mean", "outline": "(§3)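 Surface SNAP-GIPR signal removable by Mesna was tracked by imaging before and 10 min after treatment in pH 8.6 TNE buffer. Internalization is the Mesna-resistant share of specific fluorescence.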"}, "[7]": {"tested_on": "wild-type and variant SNAP-GIPR", "experiment": "Constitutive and agonist-mediated internalization, reversible SNAP-tag labelling, INS-1 cells", "set-up": "key to Internalisation, GIP-only / Internalisation, Vehicle / Internalisation, +GIP: % internalization: residual fluorescence after Mesna vs pre-Mesna", "conditions": "Mean", "outline": "as §3"}},
  "data": [
    {"molecule": "B1", "values": [
      {"measurement": "AD293 Surface", "setting": "[1]; column repeated, paired with cAMP 100 nM", "result": 0.5377},
      {"measurement": "AD293 Surface", "setting": "[1]; paired with cAMP 100 pM", "result": 0.5377},
      {"measurement": "Surface SNAP-GIPR expression", "setting": "[1]; replicate 1", "result": 0.5948},
      {"measurement": "Surface SNAP-GIPR expression", "setting": "[1]; replicate 2", "result": 0.3831},
      {"measurement": "Surface SNAP-GIPR expression", "setting": "[1]; replicate 3", "result": 0.1917},
      {"measurement": "Surface SNAP-GIPR expression", "setting": "[1]; replicate 4", "result": 0.03284},
      {"measurement": "Surface SNAP-GIPR expression", "setting": "[1]; replicate 5", "result": 0.714},
      {"measurement": "Surface SNAP-GIPR expression", "setting": "[1]; replicate 6", "result": 0.449},
      {"measurement": "Surface SNAP-GIPR expression", "setting": "[1]; replicate 7", "result": 0.6736},
      {"measurement": "Surface SNAP-GIPR expression", "setting": "[1]; replicate 8", "result": 0.7024},
      {"measurement": "Surface SNAP-GIPR expression", "setting": "[1]; replicate 9", "result": 0.4646},
      {"measurement": "Surface SNAP-GIPR expression", "setting": "[1]; replicate 10", "result": 0.5884},
      {"measurement": "Surface SNAP-GIPR expression", "setting": "[1]; replicate 11", "result": 0.4154},
      {"measurement": "Surface SNAP-GIPR expression", "setting": "[1]; replicate 12", "result": 0.584},
      {"measurement": "Surface SNAP-GIPR expression", "setting": "[1]; replicate 13", "result": 0.53},
      {"measurement": "Surface SNAP-GIPR expression", "setting": "[1]; replicate 14", "result": 0.7656},
      {"measurement": "Surface SNAP-GIPR expression", "setting": "[1]; replicate 15", "result": 0.5316},
      {"measurement": "Surface SNAP-GIPR expression", "setting": "[1]; replicate 16", "result": 0.5279},
      {"measurement": "Surface SNAP-GIPR expression", "setting": "[1]; replicate 17", "result": 0.5713},
      {"measurement": "Surface SNAP-GIPR expression", "setting": "[1]; replicate 18", "result": 0.5329},
      {"measurement": "Surface SNAP-GIPR expression", "setting": "[1]; replicate 19", "result": 0.5212},
      {"measurement": "Surface SNAP-GIPR expression", "setting": "[1]; replicate 20", "result": 0.6932},
      {"measurement": "Surface SNAP-GIPR expression", "setting": "[1]; replicate 21", "result": 0.7203},
      {"measurement": "Surface SNAP-GIPR expression", "setting": "[1]; replicate 22", "result": 0.5804},
      {"measurement": "Surface SNAP-GIPR expression", "setting": "[1]; replicate 23", "result": 0.6278},
      {"measurement": "Surface SNAP-GIPR expression", "setting": "[1]; replicate 24", "result": 0.5394},
      {"measurement": "Surface SNAP-GIPR expression", "setting": "[1]; replicate 25", "result": 0.4918},
      {"measurement": "Surface SNAP-GIPR expression", "setting": "[1]; replicate 26", "result": 0.6002},
      {"measurement": "Surface SNAP-GIPR expression", "setting": "[1]; replicate 27", "result": 0.6328},
      {"measurement": "Surface SNAP-GIPR expression", "setting": "[1]; replicate 28", "result": 0.5573},
      {"measurement": "Surface SNAP-GIPR expression", "setting": "[1]; replicate 29", "result": 0.4754},
      {"measurement": "Surface SNAP-GIPR expression", "setting": "[1]; replicate 30", "result": 0.4312},
      {"measurement": "Surface SNAP-GIPR expression", "setting": "[1]; replicate 31", "result": 0.4378},
      {"measurement": "Surface SNAP-GIPR expression", "setting": "[1]; replicate 32", "result": 0.606},
      {"measurement": "Surface SNAP-GIPR expression", "setting": "[1]; replicate 33", "result": 0.6793},
      {"measurement": "Surface SNAP-GIPR expression", "setting": "[1]; replicate 34", "result": 0.4646},
      {"measurement": "Surface SNAP-GIPR expression", "setting": "[1]; replicate 35", "result": 0.5832},
      {"measurement": "Surface SNAP-GIPR expression", "setting": "[1]; replicate 36", "result": 0.4138},
      {"measurement": "Surface SNAP-GIPR expression", "setting": "[1]; replicate 37", "result": 0.5632},
      {"measurement": "Surface SNAP-GIPR expression", "setting": "[1]; replicate 38", "result": 0.4283},
      {"measurement": "Surface SNAP-GIPR expression", "setting": "[1]; replicate 39", "result": 0.6589},
      {"measurement": "Surface SNAP-GIPR expression", "setting": "[1]; replicate 40", "result": 0.5446},
      {"measurement": "Surface SNAP-GIPR expression", "setting": "[1]; replicate 41", "result": 0.5428},
      {"measurement": "Surface expression", "setting": "[2]", "result": 0.6025},
      {"measurement": "AD293 100 pM HTRF", "setting": "[3]; AD293, 100 pM", "result": 0.1562},
      {"measurement": "AD293 100 nM HTRF", "setting": "[3]; AD293, 100 nM", "result": 1.061},
      {"measurement": "INS-1 cAMP (100 nM)", "setting": "[4]", "result": 1.062},
      {"measurement": "AD293 100 pM cADDis", "setting": "[5]; AD293, 100 pM", "result": 21.6969},
      {"measurement": "AD293 100 nM cADDis", "setting": "[5]; AD293, 100 nM", "result": 34.42},
      {"measurement": "+GIP internalisation (100 nM)", "setting": "[6]; Fig 4E, GIP 100 nM", "result": 0.3536},
      {"measurement": "GIP-specific internalisation (100 nM)", "setting": "[6]; Fig 4E, GIP 100 nM", "result": 0.06262},
      {"measurement": "Constitutive internalisation (100 nM)", "setting": "[6]; Fig 4E", "result": 0.291},
      {"measurement": "Surface expression", "setting": "[6]; Fig 4E", "result": 0.5133},
      {"measurement": "Internalisation, +GIP", "setting": "[6]; Fig S4C, AD293", "result": 68.8859},
      {"measurement": "Internalisation, GIP-only", "setting": "[6]; Fig S4C, AD293", "result": 12.125},
      {"measurement": "Internalisation, Vehicle", "setting": "[6]; Fig S4C, AD293", "result": 56.7609},
      {"measurement": "+GIP internalisation (100 nM)", "setting": "[7]; Fig 4G, GIP 100 nM", "result": 0.3425},
      {"measurement": "GIP-specific internalisation (100 nM)", "setting": "[7]; Fig 4G, GIP 100 nM", "result": 0.05503},
      {"measurement": "Constitutive internalisation (100 nM)", "setting": "[7]; Fig 4G", "result": 0.2874},
      {"measurement": "Internalisation, +GIP", "setting": "[7]; Fig S4C, INS-1", "result": 52.768},
      {"measurement": "Internalisation, GIP-only", "setting": "[7]; Fig S4C, INS-1", "result": 8.16},
      {"measurement": "Internalisation, Vehicle", "setting": "[7]; Fig S4C, INS-1", "result": 44.608}
    ]}
  ]
}
